Numbering of substitutions follows the chain as printed. Numbers in names are those of the source.
B1: L9-Q: L9 background with Luc2.0 K541Q; SEQ ID NO:96, 97 (protein)
chain: MPGAVGKVVPFFEAKVVDLDTGKTLGVNQRGELCVRGPMIMSGYVNNPEATNALIDKDGWLHSGDIAYWDEDEHFFIVDRLKSLIKYKGYQVAPAELESILLQHPNIFDAGVAGLPDDDAGELPAAVVVLEHGKTMTEKEIVDYVASQVTTAKKLRGGVVFVDEVPKGLTGKLDARKIREILIQAKKGSIAGCGDAGEGMYESFIESLPFLKSLEFSARLKVVDVIGTKVYNDGEQIIAQGDSADSFFIIESGEVKITMKRKGKSEVEENGAVEIARCSRGQYFGELALVTNKPRAASAHAIGTVKCLAMDVQAFERLLGPCMEIMKRNIATYEEQLVALFGTNMDIVAKNIKKGPAPFYPLEDGTAGEQLHKAMKRYALVPGTIAFTDAHIEVDITYAEYFEMSVRLAEAMKRYGLNTNHRIVVCSENSLQFFMPVLGALFIGVAVAPANDIYNERELLNSMGISQPTVVFVSKKGLQKILNVQKKLPIIQKIIIMDSKTDYQGFQSMYTFVTSHLPPGFNEYDFVPESFDRDKTIALIMNSSGSTGLPKGVALPHRTACVRFSHARDPIFGNQIIPDTAILSVVPFHHGFGMFTTLGYLICGFRVVLMYRFEEELFLRSLQDYKIQSALLVPTLFSFFAKSTLIDKYDLSNLHEIASGGAPLSKEVGEAVAKRFHLPGIRQGYGLTETTSAILITPEGV
B2: 7A1-IL: 7A1 background with Luc2.0 F369I, F518L; SEQ ID NO:70, 71 (protein)
chain: B1 chain with F12I, F161L, Q184K, I190N, A191W, G192D, C193S, D195C, A196S, G197R
B3: L9-IQ: L9 background with Luc2.0 F369I, K541Q; SEQ ID NO:74, 75 (protein)
chain: B1 chain with F12I
B4: 7A1-LQ: 7A1 background with Luc2.0 F518L, K541Q; SEQ ID NO:64, 65 (protein)
chain: B1 chain with F161L, I190N, A191W, G192D, C193S, D195C, A196S, G197R
B5: 7A1-LY: 7A1 background with Luc2.0 F518L and RIIβB F407Y; SEQ ID NO:25, 26 (protein)
chain: B1 chain with F161L, Q184K, I190N, A191W, G192D, C193S, D195C, A196S, G197R, F341Y
B6: L9-QY: L9 background with Luc2.0 K541Q and RIIβB F407Y; SEQ ID NO:90, 91 (protein)
chain: B1 chain with F341Y
B7: 7A1-Q: 7A1 background with Luc2.0 K541Q; SEQ ID NO:62, 63 (protein)
chain: B1 chain with I190N, A191W, G192D, C193S, D195C, A196S, G197R
B8: L9-Y: L9 background with RIIβB F407Y; SEQ ID NO:98, 99 (protein)
chain: B1 chain with Q184K, F341Y
B9: L9-IQY: L9 background with Luc2.0 F369I, K541Q and RIIβB F407Y; SEQ ID NO:78, 79 (protein)
chain: B1 chain with F12I, F341Y
B10: L9-LQ: L9 background with Luc2.0 F518L, K541Q; SEQ ID NO:102, 103 (protein)
chain: B1 chain with F161L
B11: 7A1-QY: 7A1 background with Luc2.0 K541Q and RIIβB F407Y; SEQ ID NO:109, 110 (protein)
chain: B1 chain with I190N, A191W, G192D, C193S, D195C, A196S, G197R, F341Y
B12: L9-LY: L9 background with Luc2.0 F518L and RIIβB F407Y; SEQ ID NO:100, 101 (protein)
chain: B1 chain with F161L, Q184K, F341Y
B13: 7A1-ILQ: 7A1 background with Luc2.0 F369I, F518L, K541Q; SEQ ID NO:68, 69 (protein)
chain: B1 chain with F12I, F161L, I190N, A191W, G192D, C193S, D195C, A196S, G197R
B14: L9-ILQ: L9 background with Luc2.0 F369I, F518L, K541Q; SEQ ID NO:86, 87 (protein)
chain: B1 chain with F12I, F161L
B15: 7A1-LQY: 7A1 background with Luc2.0 F518L, K541Q and RIIβB F407Y; SEQ ID NO:58, 59 (protein)
chain: B1 chain with F161L, I190N, A191W, G192D, C193S, D195C, A196S, G197R, F341Y
B16: 7A1-IQY: 7A1 background with Luc2.0 F369I, K541Q and RIIβB F407Y; SEQ ID NO:29, 30 (protein)
chain: B1 chain with F12I, I190N, A191W, G192D, C193S, D195C, A196S, G197R, F341Y
B17: L9-IL: L9 background with Luc2.0 F369I, F518L; SEQ ID NO:84, 85 (protein)
chain: B1 chain with F12I, F161L, Q184K
B18: 7A1-IY: 7A1 background with Luc2.0 F369I and RIIβB F407Y; SEQ ID NO:39, 40 (protein)
chain: B1 chain with F12I, Q184K, I190N, A191W, G192D, C193S, D195C, A196S, G197R, F341Y
B19: L9-IY: L9 background with Luc2.0 F369I and RIIβB F407Y; SEQ ID NO:76, 77 (protein)
chain: B1 chain with F12I, Q184K, F341Y
B20: L9-LQY: L9 background with Luc2.0 F518L, K541Q and RIIβB F407Y; SEQ ID NO:88, 89 (protein)
chain: B1 chain with F161L, F341Y
B21: 7A1-I: 7A1 background with Luc2.0 F369I; SEQ ID NO:66, 67 (protein)
chain: B1 chain with F12I, Q184K, I190N, A191W, G192D, C193S, D195C, A196S, G197R
B22: 7A1-IQ: 7A1 background with Luc2.0 F369I, K541Q; SEQ ID NO:23, 24 (protein)
chain: B1 chain with F12I, I190N, A191W, G192D, C193S, D195C, A196S, G197R

What was measured:
GPR41 [1] = test: Sodium proprionate CRC with biosensor variants in HEK293 cells stably expressing GPR41; format: cell-based; details: ratio of RLU of FSK treated well to untreated well
Protocol: (§1) After 24 hours, the cells were transiently transfected with one of the cAMP biosensor variants (Tables 7A and 7B). After another 24 hours, the cells were equilibrated for 2 hours at room temperature using 5 mM EF-luc in CO2 independent media with 10% FBS. Prior to the addition of the compounds, luminescence was measured. The compounds (12× stock in CO2 independent media without FBS) were then added to the cells. For GPR41 expressing cells, sodium proprionate CRC was added. […] The cells were allowed to incubate another 30 minutes and luminescence read on a Varioskan Flash. EC50 values and fold responses were calculated for each of the clones with each of the compounds with or without FSK. In addition, variants […]7 (Example VIIB), 16A2 (Example VIIB) and GS358 were also screened.

GPR41 [2] = target: T1, GPR41 (Homo sapiens, UniProt O14843); test: as above; format: cell-based; details: for Fold Response Na proprionate + FSK(1 μM): with FSK 1 μM; for Fold Response Na proprionate: without FSK, ratio of induced to uninduced signal
T1 sequence (O14843 1-346): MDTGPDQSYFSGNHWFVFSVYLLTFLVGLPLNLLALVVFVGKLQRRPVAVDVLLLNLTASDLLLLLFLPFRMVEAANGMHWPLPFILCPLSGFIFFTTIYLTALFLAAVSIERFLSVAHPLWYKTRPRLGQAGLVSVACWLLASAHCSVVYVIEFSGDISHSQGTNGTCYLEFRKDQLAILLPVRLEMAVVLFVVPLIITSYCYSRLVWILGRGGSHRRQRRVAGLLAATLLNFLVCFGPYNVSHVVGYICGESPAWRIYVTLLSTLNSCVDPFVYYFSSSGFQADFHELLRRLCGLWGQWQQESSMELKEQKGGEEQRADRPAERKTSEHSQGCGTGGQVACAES
Protocol: as §1

Molecule	Fold Signal Change (GPR41 [1])	Fold Response Na proprionate + FSK(1 μM) (GPR41 [2])	Fold Response Na proprionate (GPR41 [2])
B1	42.0 fold	5.24 fold	2.57 fold
B2	200.0 fold	4.36 fold	4.66 fold
B3	64.0 fold	5.17 fold	3.41 fold
B4	85.2 fold	6.6 fold	2.70 fold
B5	141.7 fold	62.19 fold	2.15 fold
B6	61.3 fold	10.02 fold	2.01 fold
B7	71.6 fold	4.26 fold	2.26 fold
B8	55.8 fold	3.88 fold	2.17 fold
B9	96.0 fold	–	3.82 fold
B10	98.6 fold	7.20 fold	2.83 fold
B11	87.6 fold	161.29 fold	1.68 fold
B12	126.7 fold	5.57 fold	2.07 fold
B13	181.8 fold	5.68 fold	4.09 fold
B14	140.4 fold	10.21 fold	4.13 fold
B15	153.1 fold	–	1.94 fold
B16	128.0 fold	–	2.42 fold
B17	96.7 fold	7.43 fold	3.67 fold
B18	165.7 fold	8.66 fold	2.81 fold
B19	86.4 fold	–	2.53 fold
B20	136.0 fold	13.78 fold	1.95 fold
B21	133.9 fold	6.60 fold	3.07 fold
B22	128.0 fold	3.42 fold	3.66 fold
